Measured values as given in publication PMC5430844, “RRM domain of ALS/FTD-causing FUS characteristic of irreversible unfolding spontaneously self-assembles into amyloid fibrils” (Scientific Reports, 2017).

Key:
[1] = biological target: the molecule itself; assay: 1D 1H NMR line broadening and intensity loss; N-terminal LC domain alone, 40 µM, 25 °C, 1 mM phosphate buffer, pH 6.8 compared with pH 5.0; non-exchangeable protons over −0.4–1.8 ppm
[2] = biological target: the molecule itself; assay: time-lapsed intrinsic UV and visible fluorescence, ThT-binding fluorescence, far-UV CD and negative-stain EM of an incubated sample; RRM alone, 40 µM in 1 mM phosphate buffer pH 6.8, incubated at 25 °C up to 12 days; EM at 3, 6 and 10 days; monomer to amyloid fibrils

Protein	binding result [1]	binding result [2]
FUS N-terminal low-sequence complexity (LC) domain (1–267) (domain or fragment, human, UniProt P35637 1-267, looked up, Fused in Sarcoma/Translocated in Sarcoma (FUS), 526 residues, N-terminal LC domain, residues 1-267 (QGSY-rich prion-like region 1–165 and G-rich region 166–267); Cloned by PCR from FUS cDNA into a modified pET28a; also called N-terminal LC domain; FUS (1–267)) MASNDYTQQATQSYGAYPTQPGQGYSQQSSQPYGQQSYSGYSQSTDTSGYGQSSYSSYGQSQNTGYGTQSTPQGYGSTGGYGSSQSSQSSYGQQSSYPGYGQQPAPSSTSGSYGSSSQSSSYGQPQSGSYSQQPSYGGQQQSYGQQQSYNPPQGYGQQNQYNSSSGGGGGGGGGGNYGQDQSSMSSGGGSGGGYGNQDQSGGGGSGGYGQQDRGGRGRGGSGGGGGGGGGGYNRSSGGYEPRGRGGGRGGRGGMGGSDRGGFNKFGG	binds	
FUS RRM domain (282–371) (domain or fragment, human, UniProt P35637 282-371, looked up, Fused in Sarcoma/Translocated in Sarcoma (FUS), 526 residues, RNA-recognition motif, residues 282-371 (N-terminal residue Ser282); Cloned by PCR from FUS cDNA into a modified pET28a; The introduction gives the RRM as 285–371, but the construct used is 282–371; also called FUS (282–371); RNA-recognition motif) SDNNTIFVQGLGENVTIESVADYFKQIGIIKTNKKTGQPMINLYTDRETGKLKGEATVSFDDPPSAKAAIDWFDGKEFSGNPIKVSFATR		binds
